In US20250320281A1:

Assays:
Assay in all cases: cell-based or functional assay
[1] = target: HIV-1 Env of isolate MGRM-C-026 (pseudovirus) (HIV-1)
[2] = target: HIV-1 Env of isolate 92BR020 (pseudovirus) (HIV-1)
[3] = target: HIV-1 Env of isolate JR-CSF (pseudovirus) (HIV-1) (UniProt P20871)
[4] = target: HIV-1 Env of isolate 94UG103 (pseudovirus) (HIV-1)
[5] = target: HIV-1 Env of isolate 92RW008 (pseudovirus) (HIV-1)
[6] = target: HIV-1 Env of isolate MGRM-A-004 (pseudovirus) (HIV-1)
[7] = target: HIV-1 Env of isolate MGRM-AE-001 (pseudovirus) (HIV-1)
[8] = target: HIV-1 Env of isolate VLGCA1 (pseudovirus) (HIV-1)
[9] = target: HIV-1 Env of isolate MGRM-A-005 (pseudovirus) (HIV-1)
[10] = target: HIV-1 Env of isolate MGRM-A-011 (pseudovirus) (HIV-1)
[11] = target: HIV-1 Env of isolate MGRM-AE-002 (pseudovirus) (HIV-1)
[12] = target: HIV-1 Env of isolate MGRM-A-014 (pseudovirus) (HIV-1)
[13] = target: HIV-1 Env of isolate 92WR026 (pseudovirus) (HIV-1)
[14] = target: HIV-1 Env of isolate 93UG077 (pseudovirus) (HIV-1)
[15] = target: HIV-1 Env of isolate CMU02 (pseudovirus) (HIV-1)
[16] = target: HIV-1 Env of isolate MGRM-A-007 (pseudovirus) (HIV-1)
[17] = target: HIV-1 Env of isolate 92UG031 (pseudovirus) (HIV-1)
[18] = target: HIV-1 Env of isolate MGRM-AE-003 (pseudovirus) (HIV-1)
[19] = target: HIV-1 Env of isolate MGRM-A-012 (pseudovirus) (HIV-1)
[20] = target: HIV-1 Env of isolate MGRM-A-010 (pseudovirus) (HIV-1)
[21] = target: HIV-1 Env of isolate 92TH021 (pseudovirus) (HIV-1)
[22] = target: HIV-1 Env of isolate 92WR024 (pseudovirus) (HIV-1)
[23] = target: HIV-1 Env of isolate MGRM-A-003 (pseudovirus) (HIV-1)
[24] = target: HIV-1 Env of isolate MGRM-A-008 (pseudovirus) (HIV-1)
[25] = target: HIV-1 Env of isolate 94KE105 (pseudovirus) (HIV-1)
[26] = target: HIV-1 Env of isolate 92WR021 (pseudovirus) (HIV-1)
[27] = target: HIV-1 Env of isolate 92WR009 (pseudovirus) (HIV-1)
[28] = target: HIV-1 Env of isolate 92WR020 (pseudovirus) (HIV-1)
[29] = target: HIV-1 Env of isolate 92UG037 (pseudovirus) (HIV-1)
[30] = target: HIV-1 Env of isolate MGRM-A-009 (pseudovirus) (HIV-1)
[31] = target: HIV-1 Env of isolate MGRM-A-013 (pseudovirus) (HIV-1)
[32] = target: HIV-1 Env of isolate MGRM-A-001 (pseudovirus) (HIV-1)
[33] = target: HIV-1 Env of isolate MGRM-A-006 (pseudovirus) (HIV-1)
[34] = target: HIV-1 Env of isolate MGRM-A-002 (pseudovirus) (HIV-1)
[35] = target: HIV-1 Env of isolate 93WR029 (pseudovirus) (HIV-1)
[36] = target: HIV-1 Env of isolate MGRM-F1-010 (HIV-1)
[37] = target: HIV-1 Env of isolate MG RM-D-029 (HIV-1)
[38] = target: HIV-1 Env of pseudovirus MGRM-AG-011 (subtype AG) (HIV-1)
[39] = target: HIV-1 Env of pseudovirus MGRM-AG-013 (subtype AG) (HIV-1)
[40] = target: HIV-1 Env of isolate MG RM-D-012 (HIV-1)
[41] = target: HIV-1 Env of isolate MGRM-F1-013 (HIV-1)
[42] = target: HIV-1 Env of isolate MGRM-F1-016 (HIV-1)
[43] = target: HIV-1 Env of isolate MG RM-D-011 (HIV-1)
[44] = target: HIV-1 Env of isolate MGRM-F1-014 (HIV-1)
[45] = target: HIV-1 Env of pseudovirus MGRM-AG-008 (subtype AG) (HIV-1)
[46] = target: HIV-1 Env of isolate MGRM-F1-008 (HIV-1)
[47] = target: HIV-1 Env of isolate MG RM-D-014 (HIV-1)
[48] = target: HIV-1 Env of isolate MGRM-F1-018 (HIV-1)
[49] = target: HIV-1 Env of isolate MGRM-F1-006 (HIV-1)
[50] = target: HIV-1 Env of isolate MGRM-F1-023 (HIV-1)
[51] = target: HIV-1 Env of isolate MGRM-Chronic-B-012 (HIV-1)
[52] = target: HIV-1 Env of isolate MG RM-D-019 (HIV-1)
[53] = target: HIV-1 Env of isolate MGRM-F1-017 (HIV-1)
[54] = target: HIV-1 Env of isolate MG RM-D-028 (HIV-1)
[55] = target: HIV-1 Env of isolate MG RM-D-020 (HIV-1)
[56] = target: HIV-1 Env of isolate MG RM-D-021 (HIV-1)
[57] = target: HIV-1 Env of pseudovirus MGRM-AG-001 (subtype AG) (HIV-1)
[58] = target: HIV-1 Env of pseudovirus MGRM-AG-012 (subtype AG) (HIV-1)
[59] = target: HIV-1 Env of isolate MGRM-F1-015 (HIV-1)
[60] = target: HIV-1 Env of pseudovirus MGRM-AG-003 (subtype AG) (HIV-1)
[61] = target: HIV-1 Env of pseudovirus MGRM-AE-008 (subtype AE) (HIV-1)
[62] = target: HIV-1 Env of pseudovirus MGRM-AG-005 (subtype AG) (HIV-1)
[63] = target: HIV-1 Env of isolate MGRM-F1-022 (HIV-1)
[64] = target: HIV-1 Env of isolate MGRM-F1-004 (HIV-1)
[65] = target: HIV-1 Env of isolate MG RM-D-016 (HIV-1)
[66] = target: HIV-1 Env of pseudovirus MGRM-AG-006 (subtype AG) (HIV-1)
[67] = target: HIV-1 Env of isolate MG RM-D-018 (HIV-1)
[68] = target: HIV-1 Env of pseudovirus MGRM-AG-009 (subtype AG) (HIV-1)
[69] = target: HIV-1 Env of isolate MGRM-F1-021 (HIV-1)
[70] = target: HIV-1 Env of pseudovirus MGRM-AE-007 (subtype AE) (HIV-1)
[71] = target: HIV-1 Env of isolate MGRM-F1-012 (HIV-1)
[72] = target: HIV-1 Env of isolate MG RM-D-024 (HIV-1)
[73] = target: HIV-1 Env of isolate MG RM-D-022 (HIV-1)
[74] = target: HIV-1 Env of isolate MG RM-D-013 (HIV-1)
[75] = target: HIV-1 Env of isolate MGRM-F1-020 (HIV-1)
[76] = target: HIV-1 Env of pseudovirus MGRM-AG-002 (subtype AG) (HIV-1)
[77] = target: HIV-1 Env of isolate MG RM-D-026 (HIV-1)

Chain of PGT-145 (4995_P16) (antibody) (VH): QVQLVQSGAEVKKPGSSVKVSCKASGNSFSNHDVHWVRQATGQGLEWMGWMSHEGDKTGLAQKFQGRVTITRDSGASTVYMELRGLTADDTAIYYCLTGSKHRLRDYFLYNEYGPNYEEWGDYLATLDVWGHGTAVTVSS
Chain of PGT-145 (4995_P16) (antibody) (VL): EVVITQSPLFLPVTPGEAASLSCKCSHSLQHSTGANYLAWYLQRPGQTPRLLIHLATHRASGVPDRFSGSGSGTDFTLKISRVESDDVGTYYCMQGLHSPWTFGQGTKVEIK

4873_E03 (PGT-121) (antibody)
Primary Neutralization Index (B cell culture supernatant) [1]: 371
Primary Neutralization Index (B cell culture supernatant) [2]: 3.6
Primary Neutralization Index (B cell culture supernatant) [3]: 2.2
Primary Neutralization Index (B cell culture supernatant) [4]: 0.8

PGT-121 (4838_L06; 4873_E03) (antibody)
IC50 (µg/mL), pseudovirus neutralization [5]: 0.003 µg/mL
IC50 (µg/mL), pseudovirus neutralization [6]: > 50 µg/mL
IC50 (µg/mL), pseudovirus neutralization [7]: > 50 µg/mL
IC50 (µg/mL), pseudovirus neutralization [8]: > 50 µg/mL
IC50 (µg/mL), pseudovirus neutralization [9]: > 50 µg/mL
IC50 (µg/mL), pseudovirus neutralization [10]: > 50 µg/mL
IC50 (µg/mL), pseudovirus neutralization [11]: > 50 µg/mL
IC50 (µg/mL), pseudovirus neutralization [12]: 0.003 µg/mL
IC50 (µg/mL), pseudovirus neutralization [13]: 0.014 µg/mL
IC50 (µg/mL), pseudovirus neutralization [14]: 0.019 µg/mL
IC50 (µg/mL), pseudovirus neutralization [15]: > 50 µg/mL
IC50 (µg/mL), pseudovirus neutralization [16]: > 50 µg/mL
IC50 (µg/mL), pseudovirus neutralization [17]: > 50 µg/mL
IC50 (µg/mL), pseudovirus neutralization [18]: > 50 µg/mL
IC50 (µg/mL), pseudovirus neutralization [19]: 0.092 µg/mL
IC50 (µg/mL), pseudovirus neutralization [20]: 2.44 µg/mL
IC50 (µg/mL), pseudovirus neutralization [21]: > 50 µg/mL
IC50 (µg/mL), pseudovirus neutralization [22]: > 50 µg/mL
IC50 (µg/mL), pseudovirus neutralization [23]: 0.435 µg/mL
IC50 (µg/mL), pseudovirus neutralization [24]: > 50 µg/mL
IC50 (µg/mL), pseudovirus neutralization [25]: 0.029 µg/mL
IC50 (µg/mL), pseudovirus neutralization [26]: 0.009 µg/mL
IC50 (µg/mL), pseudovirus neutralization [27]: 1.74 µg/mL
IC50 (µg/mL), pseudovirus neutralization [28]: 0.004 µg/mL
IC50 (µg/mL), pseudovirus neutralization [29]: 0.031 µg/mL
IC50 (µg/mL), pseudovirus neutralization [30]: 0.006 µg/mL
IC50 (µg/mL), pseudovirus neutralization [4]: 2.52 µg/mL
IC50 (µg/mL), pseudovirus neutralization [31]: 0.387 µg/mL
IC50 (µg/mL), pseudovirus neutralization [32]: > 50 µg/mL
IC50 (µg/mL), pseudovirus neutralization [33]: 0.396 µg/mL
IC50 (µg/mL), pseudovirus neutralization [34]: 0.013 µg/mL
IC50 (µg/mL), pseudovirus neutralization [35]: > 50 µg/mL

PGT-145 (4995_P16) (antibody)
IC50 [36]: 3.32 µg/mL
IC50 [37]: 0.03 µg/mL
IC50, pseudovirus neutralization [38]: 0.003 µg/mL
IC50, pseudovirus neutralization [39]: 14.4 µg/mL
IC50 [40]: > 50 µg/mL
IC50 [41]: 0.402 µg/mL
IC50 [42]: 17.5 µg/mL
IC50 [43]: 14.7 µg/mL
IC50 [44]: 0.009 µg/mL
IC50, pseudovirus neutralization [45]: 0.244 µg/mL
IC50 [46]: 0.228 µg/mL
IC50 [47]: 2.51 µg/mL
IC50 [48]: 1.02 µg/mL
IC50 [49]: 13.6 µg/mL
IC50 [50]: 5.88 µg/mL
IC50, pseudovirus neutralization [51]: 9.06 µg/mL
IC50 [52]: 0.111 µg/mL
IC50 [53]: 0.286 µg/mL
IC50 [54]: 0.721 µg/mL
IC50 [55]: 10 µg/mL
IC50 [56]: > 50 µg/mL
IC50, pseudovirus neutralization [57]: 0.164 µg/mL
IC50, pseudovirus neutralization [58]: > 50 µg/mL
IC50 [59]: 1.76 µg/mL
IC50, pseudovirus neutralization [60]: > 50 µg/mL
IC50, pseudovirus neutralization [61]: 1.46 µg/mL
IC50, pseudovirus neutralization [62]: 0.045 µg/mL
IC50 [63]: 0.009 µg/mL
IC50 [64]: 0.361 µg/mL
IC50 [65]: > 50 µg/mL
IC50, pseudovirus neutralization [66]: 6.6 µg/mL
IC50 [67]: 0.065 µg/mL
IC50, pseudovirus neutralization [68]: > 50 µg/mL
IC50 [69]: 8.04 µg/mL
IC50, pseudovirus neutralization [70]: 0.181 µg/mL
IC50 [71]: 0.113 µg/mL
IC50 [72]: 0.224 µg/mL
IC50 [73]: 34.3 µg/mL
IC50 [74]: 3.48 µg/mL
IC50 [75]: 0.816 µg/mL
IC50, pseudovirus neutralization [76]: 0.056 µg/mL
IC50 [77]: 0.41 µg/mL
